Changes are numbered by the printed parent chain.
Target: T1, recombinant E protein domain III of DENV-2, flag and hexahistidine tagged (dengue virus type 2)
T1 chain: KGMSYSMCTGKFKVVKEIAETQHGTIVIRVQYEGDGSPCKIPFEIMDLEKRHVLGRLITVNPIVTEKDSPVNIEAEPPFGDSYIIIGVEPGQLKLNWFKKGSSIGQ
Test: SPR

B1: humanized DB32-6 monoclonal antibody (antibody, V domains shown)
VH: EVQLQQSGAELVKPGASVNLSCTASGFNIKDTYIHWVKQRPEQGLEWIGRIDPENGNAKYDPNFQAKATIAADTSSNTAYLQLSSLTSEDTAVYYCVRTGSFWYFDVWGQGTLVTVSS
VL: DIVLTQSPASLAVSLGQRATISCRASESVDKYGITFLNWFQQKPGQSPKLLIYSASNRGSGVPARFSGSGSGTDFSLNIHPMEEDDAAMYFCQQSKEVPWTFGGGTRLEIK
B1 was tested, and the koff was 1.7e-06 s⁻¹.

B2: murine DB32-6 monoclonal antibody (antibody)
chain 1: B1 VH with E1Q, N19K, E42G, A71T, Q82H, C96S, Q110A, L113T
chain 2: not shown
Work on B2 yielded a koff of 1.7e-06 s⁻¹.

From PMC3341331 (2012)
